B1: IKKα-ΔLH (protein)
chain: MERPPGLRPGAGGPWEMRERLGTGGFGNVSLYQHRELDLKIAIKSCRLELSSKNRERWCHEIQIMKKLDHANVVKACDVPEELNFLINDVPLLAMEYCSGGDLRKLLNKPENCCGLKESQILSLLSDIGSGIRYLHENKIIHRDLKPENIVLQDVGGKTIHKIIDLGYAKDVDQGSLCTSFVGTLQYLAPELFENKPYTATVDYWSFGTMVFECIAGYRPFLHHLQPFTWHEKIKKKDPKCIFACEEMTGEVRFSSHLPQPNSLCSLIVEPMESWLQLMLNWDPQQRGGPIDLTLKQPRCFALMDHILNLKIVHILNMTSAKIISFLLPCDESLHSLQSRIERETGINTGSQELLSETGISLDPRKPASQCVLDGVRGCDSYMVYLFDKSKTVYEGPFASRSLSDCVNYIVQDSKIQLPIIQLRKVWAEAVHYVSGLKEDYSRLFQGQRAAIFRKNVKSMERNGRKGHSLF
B2: IKKα/CHUK (protein)
chain: MERPPGLRPGAGGPWEMRERLGTGGFGNVSLYQHRELDLKIAIKSCRLELSSKNRERWCHEIQIMKKLDHANVVKACDVPEELNFLINDVPLLAMEYCSGGDLRKLLNKPENCCGLKESQILSLLSDIGSGIRYLHENKIIHRDLKPENIVLQDVGGKTIHKIIDLGYAKDVDQGSLCTSFVGTLQYLAPELFENKPYTATVDYWSFGTMVFECIAGYRPFLHHLQPFTWHEKIKKKDPKCIFACEEMTGEVRFSSHLPQPNSLCSLIVEPMESWLQLMLNWDPQQRGGPIDLTLKQPRCFALMDHILNLKIVHILNMTSAKIISFLLPCDESLHSLQSRIERETGINTGSQELLSETGISLDPRKPASQCVLDGVRGCDSYMVYLFDKSKTVYEGPFASRSLSDCVNYIVQDSKIQLPIIQLRKVWAEAVHYVSGLKEDYSRLFQGQRAAMLSLLRYNANLTKMKNTLISASQQLKAKLEFFRKSIQLDLERYSEQMTYGISSEKMLKAWKEMEEKAIHYSEVGVIGYLEDQIMSLHTEIMELQKSPYGRRQGDLMESLEQRAIDLYKQLKHRPPDHLYSDSTEMVKIIVHTVQSQDRVLKELFGHLSKLLGCKQKIIDLLPKVEVALSNIKEADNTVMFMQGKRQKEIWHLLKIACTQSSARSLVGSSLEGTVTPPVSAWLPPTLADREHPLTCVVTPQDGETLAQMIEENLNCLGHLSTIIREANEDQSSSLMSLDWSWLAE
B3: IKKα-ΔCm (protein)
chain: MERPPGLRPGAGGPWEMRERLGTGGFGNVSLYQHRELDLKIAIKSCRLELSSKNRERWCHEIQIMKKLDHANVVKACDVPEELNFLINDVPLLAMEYCSGGDLRKLLNKPENCCGLKESQILSLLSDIGSGIRYLHENKIIHRDLKPENIVLQDVGGKTIHKIIDLGYAKDVDQGSLCTSFVGTLQYLAPELFENKPYTATVDYWSFGTMVFECIAGYRPFLHHLQPFTWHEKIKKKDPKCIFACEEMTGEVRFSSHLPQPNSLCSLIVEPMESWLQLMLNWDPQQRGGPIDLTLKQPRCFALMDHILNLKIVHILNMTSAKIISFLLPCDESLHSLQSRIERETGINTGSQELLSETGISLDPRKPASQCVLDGVRGCDSYMVYLFDKSKTVYEGPFASRSLSDCVNYIVQDSKIQLPIIQLRKVWAEAVHYVSGLKEDYSRLFQGQRAA

Target: GST-IκBα (1-62)

| Protein | immunoprecipitatable kinase activity towards GST-IκBα(1-62) |
| --- | --- |
| B1 | TNF-α stimulation of HEK293 cells transfected with each IKKα/CHUK isoform resulted in an increase in immunoprecipitatable kinase activity towards GST-IκBα(1-62) |
| B2 | TNF-α stimulation of HEK293 cells transfected with each IKKα/CHUK isoform resulted in an increase in immunoprecipitatable kinase activity towards GST-IκBα(1-62) |
| B3 | TNF-α stimulation of HEK293 cells transfected with each IKKα/CHUK isoform resulted in an increase in immunoprecipitatable kinase activity towards GST-IκBα(1-62) |
